From US20250215100A1 (HARBOUR BIOMED SHANGHAI, published 2025)

Columns and labels:
human CD40 on cells [1] = molecular target: T1, human CD40 on cells (human, UniProt P25942 21-277); experiment: FACS, Raji cells
T1 construct: whole, on cells; The cell line used is named in each row's assay; also called hCD40; TNFRSF5
Excerpt: (§1) Flow cytometry (FACS) was used to detect the binding ability of the CD40 antibody to cells, such as, CHO-K1/hCD40 highly expressing human CD40 (constructed by Beijing Kyinno Biotechnology), CHO-K1/cyCD40 highly expressing cynomolgus monkey CD40 (constructed by Beijing Kyinno Biotechnology) and lymphoma cell highly expressing human CD40, Raji (ATCC, #CCL-86). Specifically, the cells were digested and resuspended with complete medium (F-12K for CHO-K1 cells; and RPMI-1640 for Raji cells); and the cells were adjusted to a cell density of 1×10⁶ cells/mL. The cells were seeded in a 96-well V-bottom plate (Corning, #3894) at 100 μL/well, and the antigen binding protein to be tested at 2x final concentration was then added at 100 μL/well and mixed evenly, with the highest final concentration of the antigen binding protein of 300 nM, a total of 8 concentrations, and 5-fold concentration gradient dilution. hIgG (Crownbio, #C0002) was used as a negative control, and the positive control molecule was the molecule in Table 1-5. The cells were incubated at 4° C. for 1 hours in the dark. After the incubation, the cells were rinsed twice by adding pre-chilled PBS at 100 μL/well, and centrifuged at 500 g at 4° C. for 5 minutes, and the supernatant was discarded. Then, a fluorescent secondary antibody (goat anti-human IgG (H+L) secondary antibody, Alexa Fluor® 488 conjugate, Invitrogen, #A11013, 1:1000 dilution) was added at 100 µL/well, and the cells were incubated at 4° C. for 30 minutes in the dark. The cells were washed twice with pre-chilled PBS at 200 μL/well, and centrifuged at 500 g at 4° C. for 5 minutes, and the supernatant was discarded. Finally, the cells were resuspended in pre-chilled PBS at 200 μL/well. The fluorescence signal values were read using a BD FACS CANTOII flow cytometer or ACEA NovoCyte flow cytometer, and the data were processed and analyzed using FlowJo v10 software (FlowJo, LLC).
(§2) Data processing and graphical analysis were performed using GraphPad Prism 8 software. The binding curve of the antibody to the target cell and parameters, such as EC50 value were obtained by four-parameter nonlinear fitting.

human CD40 on cells [2] = molecular target: T1, human CD40 on cells; experiment: FACS, CHO-K1/hCD40 cells
Excerpt: as §1, §2

[3] = molecular target: T2, cynomolgus monkey CD40 on cells (cynomolgus monkey, UniProt G7PG38 21-278); experiment: FACS, CHO-K1/cyCD40 cells
T2 construct: also called cyCD40; CHO-K1/cyCD40
T2 sequence (G7PG38 entry or part of it limits assumed): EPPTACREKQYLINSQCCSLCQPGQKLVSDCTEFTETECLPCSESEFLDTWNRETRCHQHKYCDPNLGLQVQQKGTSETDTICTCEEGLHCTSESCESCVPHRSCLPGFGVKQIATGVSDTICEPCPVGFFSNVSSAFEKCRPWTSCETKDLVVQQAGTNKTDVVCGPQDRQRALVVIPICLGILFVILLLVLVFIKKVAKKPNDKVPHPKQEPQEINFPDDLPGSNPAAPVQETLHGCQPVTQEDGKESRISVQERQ
Excerpt: as §1, §2

T1 sequence (P25942 21-277): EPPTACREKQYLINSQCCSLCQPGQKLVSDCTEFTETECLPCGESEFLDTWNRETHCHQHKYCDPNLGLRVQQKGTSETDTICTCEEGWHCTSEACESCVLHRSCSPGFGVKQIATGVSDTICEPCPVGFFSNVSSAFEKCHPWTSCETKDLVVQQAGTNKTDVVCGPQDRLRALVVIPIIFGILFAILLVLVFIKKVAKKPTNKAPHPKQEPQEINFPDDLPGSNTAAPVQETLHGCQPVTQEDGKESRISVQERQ

| Binder | EC50 (human CD40 on cells [1]) [nM] | Maximum MFI (human CD40 on cells [1]) [MFI] | EC50 (human CD40 on cells [2]) [nM] | Maximum MFI (human CD40 on cells [2]) [MFI] | EC50 [3] [nM] | Maximum MFI [3] [MFI] |
| --- | --- | --- | --- | --- | --- | --- |
| PR006493 (antibody, human IgG1, kappa, V domains shown, PR003379 variant L:N92L; human IgG1 L234A, L235A, G237A) VH: QVQLVQSGAEVKKPGASVKVSCKASGYTFAGYYMYWVRQAPGQGLEWMGWINPDSGAPTYAQKFQGRVTMTRDTSISTAYMELSRLRSDDTAVYYCAREKIYYGSGNYYPSFDYWGQGTLVTVSS VL: DIQLTQSPSFLSASVGDRVTITCRASQGISSYLAWYQQKPGKAPKLLIYAASTLQSGVPSRFSGSGSGTEFTLTISSLQPEDFATYYCQQLLSYPWTFGQGTKVEIKR | 0.377 | 9350 | 5.26 | 83400 | 4.06 | 48900 |
| PR006494 (antibody, human IgG1, kappa, V domains shown, PR003379 variant L:N92T; human IgG1 L234A, L235A, G237A) VH: QVQLVQSGAEVKKPGASVKVSCKASGYTFAGYYMYWVRQAPGQGLEWMGWINPDSGAPTYAQKFQGRVTMTRDTSISTAYMELSRLRSDDTAVYYCAREKIYYGSGNYYPSFDYWGQGTLVTVSS VL: DIQLTQSPSFLSASVGDRVTITCRASQGISSYLAWYQQKPGKAPKLLIYAASTLQSGVPSRFSGSGSGTEFTLTISSLQPEDFATYYCQQLTSYPWTFGQGTKVEIKR | 0.328 | 9180 | 8.73 | 98800 | 4.04 | 49600 |
| PR006509 (antibody, human IgG1, kappa, V domains shown, PR003379 variant L:S93L; human IgG1 L234A, L235A, G237A) VH: QVQLVQSGAEVKKPGASVKVSCKASGYTFAGYYMYWVRQAPGQGLEWMGWINPDSGAPTYAQKFQGRVTMTRDTSISTAYMELSRLRSDDTAVYYCAREKIYYGSGNYYPSFDYWGQGTLVTVSS VL: DIQLTQSPSFLSASVGDRVTITCRASQGISSYLAWYQQKPGKAPKLLIYAASTLQSGVPSRFSGSGSGTEFTLTISSLQPEDFATYYCQQLNLYPWTFGQGTKVEIKR | 0.371 | 12200 | 5.51 | 79600 | 4.69 | 45300 |
| PR006512 (antibody, human IgG1, kappa, V domains shown, PR003379 variant L:S93T; human IgG1 L234A, L235A, G237A) VH: QVQLVQSGAEVKKPGASVKVSCKASGYTFAGYYMYWVRQAPGQGLEWMGWINPDSGAPTYAQKFQGRVTMTRDTSISTAYMELSRLRSDDTAVYYCAREKIYYGSGNYYPSFDYWGQGTLVTVSS VL: DIQLTQSPSFLSASVGDRVTITCRASQGISSYLAWYQQKPGKAPKLLIYAASTLQSGVPSRFSGSGSGTEFTLTISSLQPEDFATYYCQQLNTYPWTFGQGTKVEIKR | 0.424 | 12100 | 5.18 | 81600 | 4.55 | 45800 |
| PR006514 (antibody, human IgG1, kappa, V domains shown, PR003379 variant L:S93V; human IgG1 L234A, L235A, G237A) VH: QVQLVQSGAEVKKPGASVKVSCKASGYTFAGYYMYWVRQAPGQGLEWMGWINPDSGAPTYAQKFQGRVTMTRDTSISTAYMELSRLRSDDTAVYYCAREKIYYGSGNYYPSFDYWGQGTLVTVSS VL: DIQLTQSPSFLSASVGDRVTITCRASQGISSYLAWYQQKPGKAPKLLIYAASTLQSGVPSRFSGSGSGTEFTLTISSLQPEDFATYYCQQLNVYPWTFGQGTKVEIKR | 0.455 | 12000 | 5.08 | 86900 | 4.23 | 45100 |
| PR006505 (antibody, human IgG1, kappa, V domains shown, PR003379 variant L:S93I; human IgG1 L234A, L235A, G237A) VH: QVQLVQSGAEVKKPGASVKVSCKASGYTFAGYYMYWVRQAPGQGLEWMGWINPDSGAPTYAQKFQGRVTMTRDTSISTAYMELSRLRSDDTAVYYCAREKIYYGSGNYYPSFDYWGQGTLVTVSS VL: DIQLTQSPSFLSASVGDRVTITCRASQGISSYLAWYQQKPGKAPKLLIYAASTLQSGVPSRFSGSGSGTEFTLTISSLQPEDFATYYCQQLNIYPWTFGQGTKVEIKR | 0.336 | 11900 | 6.08 | 82700 | 4.62 | 48100 |
| PR006501 (antibody, human IgG1, kappa, V domains shown, PR003379 variant L:N92Q; human IgG1 L234A, L235A, G237A) VH: QVQLVQSGAEVKKPGASVKVSCKASGYTFAGYYMYWVRQAPGQGLEWMGWINPDSGAPTYAQKFQGRVTMTRDTSISTAYMELSRLRSDDTAVYYCAREKIYYGSGNYYPSFDYWGQGTLVTVSS VL: DIQLTQSPSFLSASVGDRVTITCRASQGISSYLAWYQQKPGKAPKLLIYAASTLQSGVPSRFSGSGSGTEFTLTISSLQPEDFATYYCQQLQSYPWTFGQGTKVEIKR | 0.352 | 9000 | 5.29 | 91000 | 4.19 | 48200 |
